According to patent US20040018580A1, “Synthetic substrates for prostasin” (priority 2002, published 2004):

Tests used:
[1] = biological target: T1, prostasin-mPBP complex (Homo sapiens, UniProt Q16651); experiment: Inhibition of complex formation between prostasin and mPBP (western blot); type: binding
T1 construct: made in house; mPBP: purified from mouse seminal vesicle fluid
Experimental: (§1) The procedures were performed according to Chen et al. Briefly, purified recombinant prostasin was incubated with samples from each purification step or the final purified mPBP at 37 degrees C. for 1 hour or for various times as indicated. The binding reaction was stopped by the addition of SDS sample buffer (1×SDS sample buffer=62.5 mM Tris-Hcl at Ph 6.8, 2% (v/v) glycerol, 2% SDS (w/v) and 2% Beta-mercaptoethanol). The reaction mixtures were then boiled for 5 min, and resolved in 10% SDS-polyacrylamide gels. The resolved proteins were then transferred to nitrocellulose membranes, and analyzed with either a prostasin antibody or the mPBP antibody. Signals were detected using an ECL detection procedure with the WestPico reagents (Pierce, Rockford, Ill.) following the manufacturer's protocol. The membrane was then exposed to X-ray film (Midwest Scientific, St. Louis, Mo.) The prostasin antibody was used at 1:2,000 dilution, the mPBP antibody was used at 1:10,000 dilution, and the secondary antibody (goat anti-rabbit IgG, Sigma-Aldrich) was used at 1:10,000 dilution. All antibodies were diluted in 5% non-fat milk in TBS-T (TBS-T=20 mM Tris-Hcl at pH 7.6, 0.14M NaCl and 0.1% Tween-20).
(§2) The purified mPBP was tested for its biochemical activities using the prostasin binding assay. Complex formation between mPBP and purified prostasin was analyzed by western blotting using the mPBP antibody and a prostasin antibody. […] The complex was detected after 30 seconds of incubation and progressed during the incubation time course (60 minutes). […] The complex formation of prostasin and mPBP was used as a control (FIG. 4C, lane 2).
(§3) It has been known that PN-1 can form complexes with various serine proteases, including thrombin. […] We also tested if the complex is pH dependent because prostasins's optimum pH is 9.0. […] We further tested if heparin may have a different effect on the complex formation between prostasin-mPBP versus on that between thrombin-mPBP.

[2] = biological target: T2, prostasin (Homo sapiens, UniProt Q16651); experiment: Complex formation of recombinant GST-PN-1 with recombinant prostasin (immunoblot); type: binding; set-up: made in house; conditions: for complex formation of GST-PN-1 fusion protein with prostasin: 0.5 micrograms recombinant prostasin, 37 degrees C., 60 minutes
Experimental: To establish if mPBP is indeed protease nexin-1, mouse and human protease nexin-1 (PN-1) cDNA were cloned into the pGEX-6P-1 expression vector. The recombinant protein products have the schistosomal glutathione-S-transferase (GST) fused to t he N-terminus of the PN-1. The GST fusion proteins were affinity-purified using glutathione-conjugated agarose-beads. For each type of recombinant protein, cleared supernatant of cell lysate from one liter of culture was incubated with 1 ml of […] glutathione-beads. The beads were eluted with 1 ml of fresh 10 mM glutathione in 50 mM Tris-Hcl, pH 8.0. Twenty microliters of the eluent were incubated with 0.5 micrograms of recombinant prostasin at 37 degrees C. for 60 minutes in the absence or presence of aprotinin. Both the GST-mPN-1 (FIG. 8, lane 1 alone at 64 kDa) and the GST-hPN-1 (FIG. 8, lanes 2 and 5). […] An immunoreactive band at 30 kDa and two other minor immunoreactive bands at 42 kDa and 60 kDa were likely the products of non-specific degradation of the recombinant PN-1, since no protease inhibitors were added in the cell lysate during purification.

[3] = biological target: T2, prostasin; experiment: Enzymatic assay with QAR-AMC substrate (residual activity of prostasin); type: biochemical; set-up: made in house
Experimental: Recombinant human prostasin was purified as described in Chen et al. A synthetic substrate, N-t-Boc-Gln-Ala-Arg-7-amido-4-methyl coumarin (QAR-AMC) was purchased from Sigma-Aldrich. The purified mPBP (concentration range 0-0.4 micromolar) was incubated with prostasin (0.8 micromolar) for 30 mins at 37 degrees C. The binding reaction mixture (20 microliters) was then added to 80 microliters of […] Tris-HCL) pH 8.0/0.1% bovine serum albumin containing the QAR-AMC substrate (final concentration: 100 micromolar) in 96-well microtiter plates (Costar 3903, Cambridge, Mass.). The velocity of substrate hydrolysis was measured using a Wallac 1420 Victor mulitlabel counter at wavelength 355 nm and wavelength 460 nm. The residual activity of prostasin (velocity of the inhibited enzyme reaction/velocity of the uninhibited enzyme reaction) as plotted versus the mPBP concentration.
QAR-AMC was used as a substrate for prostasin to test the inhibitory activity of the purified mPBP. Pprostasin (0.8 micromolar) was incubated with 0, 0.05, 0.1, 0.2 or 0.4 micromolar mPBP at 37 degress C. for 30 mins. The reaction mixture was then to the assay buffer containing a final concentration of 100 micromolar QAR-AMC substrate.

[4] = biological target: T3, thrombin-mPBP complex (Homo sapiens, UniProt P00734); experiment: Effect of heparin on complex formation between thrombin and mPBP; type: binding; conditions: heparin at 0.25 unit/reaction, FIG. 6B
T3 construct: mPBP: purified from mouse seminal vesicle fluid
From the text: as §3

[5] = biological target: T4, thrombin (Homo sapiens, UniProt P00734); conditions: cited from earlier work
[6] = tested on: factor Xa; conditions: cited from earlier work
[7] = biological target: T4, thrombin; experiment: Complex formation between thrombin and mPBP; type: binding
From the text: as §3

[8] = biological target: T5, purified recombinant prostasin (Homo sapiens, UniProt Q16651); experiment: Prostasin-binding assay (complex formation, western blot)
T5 construct: made in house
Experimental: as §1, §2

[9] = biological target: T2, prostasin; experiment: Membrane-overlay zymography of prostasin activity; type: biochemical
[10] = binding conditions of increasing pH

T2 sequence (Q16651 33-343): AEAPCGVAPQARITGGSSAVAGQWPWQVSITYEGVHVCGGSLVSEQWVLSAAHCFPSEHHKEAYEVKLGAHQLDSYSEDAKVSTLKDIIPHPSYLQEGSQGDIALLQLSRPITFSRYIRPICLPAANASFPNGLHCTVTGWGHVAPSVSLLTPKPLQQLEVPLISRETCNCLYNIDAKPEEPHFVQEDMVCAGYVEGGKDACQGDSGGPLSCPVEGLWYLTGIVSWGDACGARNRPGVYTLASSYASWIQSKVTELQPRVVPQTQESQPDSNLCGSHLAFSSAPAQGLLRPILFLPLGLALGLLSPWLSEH
T5 sequence (Q16651 33-343): as above

In the case of `O=S(=O)(F)Cc1ccccc1` [PMSF], the “effect on prostasin-mPBP complex formation” value ([1]; FIG. 4C) is reported as “inhibited”.

In the case of aprotinin [reference compound], the “effect on GST-PN-1/prostasin complex formation” value ([2]; in the presence of aprotinin, FIG. 8 lanes 3 and 6) is reported as “inhibited” and the “effect on prostasin-mPBP complex formation” value ([1]; FIG. 4C) is reported as “inhibited”.

In the case of heparin, the “effect on prostasin-mPBP complex formation” value ([1]; FIG. 4C) is reported as “inhibited”, the “effect on prostasin-mPBP complex formation” value ([1]; heparin at 0.25 unit/reaction, FIG. 6B) is reported as “completely abolished” and the “effect on prostasin inhibition by mPBP” value ([3]; pre-incubation of mPBP and heparin, QAR-AMC substrate) is reported as “able to prevent prostasin inhibition by mPBP”. For the same molecule, the “effect on thrombin-mPBP complex formation” value [4] was “not between thrombin-PMP”.

B1: GST-hPN-1: recombinant human PN-1 with glutathione-S-transferase fused to the N-terminus (protein)
chain: SHFNPLSLEELGSNTGIQVFNQIVKSRPHDNIVISPHGIASVLGMLQLGADGRTKKQLAMVMRYGVNGVGKILKKINKAIVSKKNKDIVTVANAVFVKNASEIEVPFVTRNKDVFQCEVRNVNFEDPASACDSINAWVKNETRDMIDNLLSPDLIDGVLTRLVLVNAVYFKGLWKSRFQPENTKKRTFVAADGKSYQVPMLAQLSVFRCGSTSAPNDLWYNFIELPYHGESISMLIALPTESSTPLSAIIPHISTKTIDSWMSIMVPKRVQVILPKFTAVAQTDLKEPLKVLGITDMFDSSKANFAKITTGSENLHVSHILQKAKIEVSEDGTKASAATTAILIARSSPPWFIVDRPFLFFIRHNPTGAVLFMGQINKP
modifications: left off: a dimerising Fc or GST
notes: recombinant human PN-1 with glutathione-S-transferase fused to the N-terminus
In the case of B1, the “complex formation of GST-PN-1 fusion protein with prostasin” value [2] is reported as “form a 100 kDa complex”.

B2: GST-mPN-1: recombinant mouse PN-1 with glutathione-S-transferase fused to the N-terminus (protein)
chain: SQFNSLSLEELGSNTGIQVFNQIIKSRPHENVVVSPHGIASILGMLQLGADGKTKKQLSTVMRYNVNGVGKVLKKINKAIVSKKNKDIVTVANAVFLRNGFKMEVPFAVRNKDVFQCEVQNVNFQDPASASESINFWVKNETRGMIDNLLSPNLIDGALTRLVLVNAVYFKGLWKSRFQPESTKKRTFVAGDGKSYQVPMLAQLSVFRSGSTRTPNGLWYNFIELPYHGESISMLIALPTESSTPLSAIIPHITTKTIDSWMNTMVPKRMQLVLPKFTAVAQTDLKEPLKALGITEMFEPSKANFTKITRSESLHVSHILQKAKIEVSEDGTKASAATTAILIARSSPPWFIVDRPFLFSIRHNPTGAILFLGQVNKP
modifications: left off: a dimerising Fc or GST
notes: recombinant mouse PN-1 with glutathione-S-transferase fused to the N-terminus
In the case of B2, the “complex formation of GST-PN-1 fusion protein with prostasin” value [2] is reported as “form a 100 kDa complex”.

B3: PN-1: protease nexin-1, a serine protease inhibitor (serpin) (protein)
chain: SQFNSLSLEELGSNTGIQVFNQIIKSRPHENVVVSPHGIASILGMLQLGADGKTKKQLSTVMRYNVNGVGKVLKKINKAIVSKKNKDIVTVANAVFLRNGFKMEVPFAVRNKDVFQCEVQNVNFQDPASASESINFWVKNETRGMIDNLLSPNLIDGALTRLVLVNAVYFKGLWKSRFQPESTKKRTFVAGDGKSYQVPMLAQLSVFRSGSTRTPNGLWYNFIELPYHGESISMLIALPTESSTPLSAIIPHITTKTIDSWMNTMVPKRMQLVLPKFTAVAQTDLKEPLKALGITEMFEPSKANFTKITRSESLHVSHILQKAKIEVSEDGTKASAATTAILIARSSPPWFIVDRPFLFSIRHNPTGAILFLGQVNKP
For B3, the “inhibitory activity of PN-1 to thrombin in the presence of heparin” value [5] is given as “enhanced” and the “inhibitory activity of PN-1 to factor Xa in the presence of heparin” value [6] is given as “enhanced”.

B4: mPBP: mouse prostasin-binding protein purified from mouse seminal vesicle fluid, 45 kDa; identified as the serpin protease nexin-1 (protein)
chain: SQFNSLSLEELGSNTGIQVFNQIIKSRPHENVVVSPHGIASILGMLQLGADGKTKKQLSTVMRYNVNGVGKVLKKINKAIVSKKNKDIVTVANAVFLRNGFKMEVPFAVRNKDVFQCEVQNVNFQDPASASESINFWVKNETRGMIDNLLSPNLIDGALTRLVLVNAVYFKGLWKSRFQPESTKKRTFVAGDGKSYQVPMLAQLSVFRSGSTRTPNGLWYNFIELPYHGESISMLIALPTESSTPLSAIIPHITTKTIDSWMNTMVPKRMQLVLPKFTAVAQTDLKEPLKALGITEMFEPSKANFTKITRSESLHVSHILQKAKIEVSEDGTKASAATTAILIARSSPPWFIVDRPFLFSIRHNPTGAILFLGQVNKP
For B4, the “pH dependence of complex formation of mPBP and thrombin” value [7, 10] was “somewhat decreased with increasing pH”, the “complex formation with thrombin” value ([7]; purified mPBP) was “formed a complex with prostasin as well as thrombin” and the “inhibition of prostasin's activity” value ([3]; prostasin 0.8 micromolar with 0-0.4 micromolar mPBP, 37 degrees C., 30 mins, 100 micromolar QAR-AMC) was “inhibited in a dose dependent manner”. For the same molecule, the “pH dependence of complex formation of mPBP and prostasin” value [8, 10] was “increased with higher pH”, the “complex formation with prostasin” value ([8]; purified mPBP, western blot) was “formed a complex with prostasin” and the “incubation time after which the prostasin-mPBP complex was detected” value ([8]; time course up to 60 minutes, 37 degrees C.) was 30 s. The “inhibition of prostasin's activity by membrane-overlay zymography” value [9] was “inhibits prostasin's activity”.
